Source: patent publication US20050048639
Residue numbers refer to the chain shown, from its start.

Columns and labels:
p72 (D600E) = target: T1, p72 (D600E)
T1 chain: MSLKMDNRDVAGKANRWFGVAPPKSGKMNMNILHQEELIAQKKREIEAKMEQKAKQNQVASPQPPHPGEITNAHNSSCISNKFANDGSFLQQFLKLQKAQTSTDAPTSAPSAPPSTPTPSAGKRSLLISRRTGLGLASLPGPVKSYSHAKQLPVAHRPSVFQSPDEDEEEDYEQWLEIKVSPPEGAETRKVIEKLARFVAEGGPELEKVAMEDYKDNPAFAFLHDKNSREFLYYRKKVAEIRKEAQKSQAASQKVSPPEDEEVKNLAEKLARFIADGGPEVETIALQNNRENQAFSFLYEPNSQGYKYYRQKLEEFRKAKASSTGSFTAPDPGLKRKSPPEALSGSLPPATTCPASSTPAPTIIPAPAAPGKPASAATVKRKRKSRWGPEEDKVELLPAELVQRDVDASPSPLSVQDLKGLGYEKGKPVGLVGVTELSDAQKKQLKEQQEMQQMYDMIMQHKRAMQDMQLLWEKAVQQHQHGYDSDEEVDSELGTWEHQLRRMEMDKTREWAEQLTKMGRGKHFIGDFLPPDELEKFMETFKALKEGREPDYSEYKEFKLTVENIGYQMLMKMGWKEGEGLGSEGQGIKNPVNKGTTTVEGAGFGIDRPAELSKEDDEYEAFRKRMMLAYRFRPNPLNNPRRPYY

p72 (Cari) = target: T2, p72 (Cari)
T2 chain: T1 chain with E600D

p72 (1-600) = target: T3, p72 (1-600)
T3 chain: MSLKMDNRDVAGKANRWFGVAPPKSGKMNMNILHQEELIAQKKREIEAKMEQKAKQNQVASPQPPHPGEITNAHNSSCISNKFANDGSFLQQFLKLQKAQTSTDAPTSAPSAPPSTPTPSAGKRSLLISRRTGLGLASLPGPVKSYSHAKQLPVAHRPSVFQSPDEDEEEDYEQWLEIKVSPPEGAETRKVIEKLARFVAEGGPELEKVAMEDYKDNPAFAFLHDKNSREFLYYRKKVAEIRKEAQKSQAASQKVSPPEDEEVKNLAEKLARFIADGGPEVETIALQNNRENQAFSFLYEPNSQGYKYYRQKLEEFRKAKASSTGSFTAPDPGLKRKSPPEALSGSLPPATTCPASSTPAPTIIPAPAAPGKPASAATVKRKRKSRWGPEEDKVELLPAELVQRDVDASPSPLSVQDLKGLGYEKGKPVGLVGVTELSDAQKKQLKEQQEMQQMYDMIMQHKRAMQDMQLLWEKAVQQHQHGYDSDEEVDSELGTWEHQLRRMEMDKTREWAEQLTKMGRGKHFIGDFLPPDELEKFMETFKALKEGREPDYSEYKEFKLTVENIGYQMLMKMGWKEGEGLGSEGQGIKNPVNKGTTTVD

B1: recombinant active caspase-8 (protein)
chain 1: EELCGVMTISDSPREQDSESQTLDKVYQMKSKPRGYCLIINNHNFAKAREKVPKLHSIRDRNGTHLDAGALTTTFEELHFEIKPHHDCTVEQIYEILKIYQLMDHSNMDCFICCILSHGDKGIIYGTDGQEAPIYELTSQFTGLKCPSLAGKPKVFFI
chain 2: GIPVETDSEEQPYLEMDLSSPQTRYIPDEADFLLGMATVNNCVSYRNPAEGTWYIQSLCQSLRERCPRGDDILTILTEVNYEVSNKDDKKNMGKQ
**Q.** B1 was tested. Which “cleavage of in vitro translated 35S-labeled Cari D600E by recombinant active caspase-8 (SDS-PAGE, phospho-imaging)” value (p72 (D600E)) did it give?
**A.** the same protein profile of Cari D600E mutant is observed in the presence or the absence of caspase-8

**Q.** And the “cleavage of in vitro translated 35S-labeled Cari by recombinant active caspase-8 (SDS-PAGE, phospho-imaging)” value (p72 (Cari))?
**A.** This band disappears after addition of activated caspase-8 for 1 hour and a new smaller fragment corresponding to 68 kDa appears (lane 4)

**Q.** What about the “cleavage of in vitro translated 35S-labeled Cari 1-600 by recombinant active caspase-8 (SDS-PAGE, phospho-imaging)” value (p72 (1-600)) of the same protein?
**A.** co-migrates with the 68 kDa fragment produced after cleavage of the wild type Cari and is not further cleaved by addition of caspase-8
